In patent US20260241035A1, “FUNCTIONAL NUCLEIC ACID MOLECULE AND METHOD” (THE UNIVERSITY COURT OF THE UNIVERSITY OF EDINBURGH, priority 2022, published 2026):

Columns and labels:
SOX2 = target: T1, SOX2 (Homo sapiens, UniProt P48431); assay: Biotinylated enhancer pull down from nuclear extract, western blot and mass spectrometry; assay type: binding; settings: for SOX2 enrichment (mass spectrometry): normalised to random sequence 599
T1 construct: endogenous in cells; host or cells: nuclear extract of GSC7 and GSC328 (patient-derived glioblastoma stem cell lines)
Procedure: The oligo was PCR-amplified using biotinylated primers. The PCR product was then SPRI purified to remove biotinylated primer dimers. These dsDNA fragments were incubated with nuclear extract from GSC7 and GSC328. They were then bound to streptavidin magnetic beads, washed three times and the frozen beads were sent for mass spectrometry analysis.
All the buffers were prepared the day before, passed through a […] filter (except the dialysis buffer) and left at 4° C. overnight. DTT and protease inhibitors were added just before use. The cells were scraped on the media and collected on 50 ml falcons, which were spun at 1350 rcf 5 minutes at 4° C. The pellet was resuspended in 50 ml of ice cold PBS, an aliquot was taken for cell counting, and spun again spun at 1350 rcf 5 minutes at 4° C. The pellet was then resuspended in 5 ml per 40 million cells of ice cold buffer A (10 mM HEPES pH 7.9, 1.5 mM MgCl2, 10 mM KCl, 0.5 mM DTT, protease inhibitors (Complete, Roche, 11697498001)) and incubated on ice for 10 min. The cell suspension was transferred to a glass Dounce homogenizer and dounced 40 times on ice. The cell suspension was transferred to a falcon and centrifuged at 1350 rcf for 10 min at 4° C. The supernatant was discarded (cytosolic extract) and the pellet resuspended in 100 μl per 10 million cells in ice cold buffer B (20 mM HEPES pH 7.9, 5% glycerol, 1 M NaCl, 1.5 mM MgCl2, 0.2 mM EDTA pH 8.0, 0.5 mM DTT, protease inhibitors (Complete, Roche, 11697498001)). The suspension was rotated for 30 minutes at 4° C. and transferred into a dialysis membrane (SnakeSkin, Thermo Scientific, Cat 68100). Dialysis was carried out in 500 ml of dialysis buffer (20 mM HEPES pH 7.9, 5% glycerol, 100 mM KCl, 0.83 mM EDTA pH 8.0, 1.66 mM DTT, protease inhibitors (Complete, Roche, 11697498001)) for two hours at 4° C. with rotation. Dialysis buffer was changed (500 ml) and the dialysis was continued overnight at 4° C. […] The supernatant was collected into new 1.5 ml tubes and quantified (Pierce BCA Protein Assay Kit, Thermo Scientific, Cat 23225). […]

SOX9 = target: T2, SOX9 (Homo sapiens, UniProt P48436); assay: Biotinylated enhancer pull down from nuclear extract, SOX9 detection; assay type: binding; settings: random DNA 599 as negative control
T2 construct: These dsDNA fragments were incubated with nuclear extract from GSC7 and GSC328; endogenous in cells; host or cells: nuclear extract of GSC7 and/or GSC328 (patient-derived glioblastoma stem cell lines)
T2 sequence (P48436 1-509): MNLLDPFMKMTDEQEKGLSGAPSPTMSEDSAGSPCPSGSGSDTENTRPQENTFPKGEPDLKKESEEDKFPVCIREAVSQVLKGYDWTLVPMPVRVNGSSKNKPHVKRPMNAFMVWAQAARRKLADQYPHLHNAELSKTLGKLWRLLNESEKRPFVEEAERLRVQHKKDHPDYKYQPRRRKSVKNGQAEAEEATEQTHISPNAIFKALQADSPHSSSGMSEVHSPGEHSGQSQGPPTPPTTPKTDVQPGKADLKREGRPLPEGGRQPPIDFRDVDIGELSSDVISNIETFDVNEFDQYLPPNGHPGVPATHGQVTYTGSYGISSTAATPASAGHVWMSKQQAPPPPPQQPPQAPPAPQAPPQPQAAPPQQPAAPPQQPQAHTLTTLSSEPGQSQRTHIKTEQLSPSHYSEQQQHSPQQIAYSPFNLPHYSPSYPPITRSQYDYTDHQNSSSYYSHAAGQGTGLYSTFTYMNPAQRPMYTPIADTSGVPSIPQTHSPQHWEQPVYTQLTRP
Procedure: All the buffers were prepared the day before, passed through a 22 μm filter (except the dialysis buffer) and left at 4° C. overnight. DTT and protease inhibitors were added just before use. […] The cell suspension was transferred to a glass Dounce homogenizer and dounced 40 times on ice. […] Dialysis buffer was changed (500 ml) and the dialysis was continued overnight at 4° C. The extract was collected in an 1.5 ml tube and spun at maximum speed for 15 min at 4° C. […] 100 μg aliquots were flash frozen in liquid nitrogen and stored at −80° C.
Enhancers were amplified with 5′ biotinylated primers (Table 5) using PrimeStar Max (Takara) according to the manufacturer's instructions.
Streptavidin Magnetic Bead (NEB, S1420S) were used according to the manufacturer's instructions. […]
Next, we aimed to confirm that indeed SOX2 and SOX9 are binding to the enhancer and the SOX dimer motif. […] To filter for transcription factors a list of all transcription factors was obtained from UniProt and overlapped with the detected proteins in both cell lines.

T1 sequence (P48431 whole entry): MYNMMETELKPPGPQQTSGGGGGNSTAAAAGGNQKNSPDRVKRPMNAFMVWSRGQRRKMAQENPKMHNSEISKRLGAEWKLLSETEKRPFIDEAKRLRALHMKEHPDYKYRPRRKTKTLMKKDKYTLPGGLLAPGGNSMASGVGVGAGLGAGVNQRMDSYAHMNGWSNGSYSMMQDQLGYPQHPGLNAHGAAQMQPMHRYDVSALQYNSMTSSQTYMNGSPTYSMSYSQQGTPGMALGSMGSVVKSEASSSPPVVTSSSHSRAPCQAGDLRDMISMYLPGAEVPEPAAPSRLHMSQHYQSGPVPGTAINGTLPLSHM

B1: ID1101: enhancer fragment, SEQ ID NO: 4 (nucleic acid)
DNA: GTGAGTGTGACTCACATGCTGGCATCAGAGCCCCTCTTAGAGCTTAGAACACTGGGCCTCTGTCAGGCAAAGAAAAGGAGTCCCTATGAATAGCCATCTCCACAAATAGCAGTTACTGTCACTTCTTAAAAGACACAAGCATGGCTGGAGACCGGCACTG
SOX2 enrichment (mass spectrometry) (SOX2; G7 nuclear extract): 4.4 fold
SOX2 pull down (SOX2; GSC7 and GSC328): pulled down specifically
SOX2 enrichment (mass spectrometry) (SOX2; GSC328 nuclear extract): 23 fold
SOX9 interaction (SOX9): selectively interacts
